This data set concerns the molecule itself. Kind of data set: negative staining EM; purified native RNPs, untreated, in reduced-salt TNE (25 mM NaCl), 1% uranyl acetate.

B1: Bunyamwera virus (BUNV) nucleocapsid protein (NP), as it stands in native ribonucleoproteins (RNPs) purified from virions (natural protein)
chain: MIELEFHDVAANTSSTFDPEVAYANFKRVHTTGLSYDHIRIFYIKGREIKTSLAKRSEWEVTLNLGGWKITVYNTNFPGNRNNPVPDDGLTLHRLSGFLARYLLEKMLKVSEPEKLIIKSKIINPLAEKNGITWNDGEEVYLSFFPGSEMFLGTFRFYPLAIGIYKVQRKEMEPKYLEKTMRQRYMGLEAATWTVSKLTEVQSALTVVSSLGWKKTNVSAAARDFLAKFGINM
notes: the atomic model started from the BUNV NP crystal structure PDB 3ZLA; Many copies of NP form a helical filament around each RNA segment (about 3.4 NPs per turn); the number of copies depends on the segment; The viral RNA is part of the assembly; also called BUNV NP; source: native RNPs from BUNV virions grown in BHK-21 cells; virions disrupted by freeze/thaw, RNPs purified on a 10 to 25% OptiPrep …
Regarding B1, the binding result is “binds”.

For the origin of these results see PMC9426602, “The Native Orthobunyavirus Ribonucleoprotein Possesses a Helical Architecture” (mBio, 2022).
